In patent US8987433B2, “Variant isoprenoid producing enzymes and uses thereof” (Sapphire Energy, Inc., priority 2009, dated 2015):
Entries after “also recorded” stand apart in the source; their conditions may differ. Like-named read-outs stand apart in the source and are kept apart here.

Columns and labels:
E. coli XL1-blue cells = assay: Minimum inhibitory concentration (MIC) of cefotaxime on plated bacterial cells; format: cell-based; details: for MIC: Escherichia coli, XL1BLUECELLS, 24 h, about 1,000 cells per plate, 24 hours at 37° C.
Method: The minimum inhibitory concentration (MIC) of cefotaxime on bacterial cells lacking a plasmid is determined by plating 10 μl of a 10^−2 dilution of an overnight bacterial culture (about 1000 cfu) of E. coli XL1-blue cells (Stratagene, San Diego Calif.) on plates with varying levels of cefotaxime (Sigma, St. Louis Mo.), followed by incubation for 24 hours at 37° C.
Growth on cefotaxime is sensitive to the density of cells, and therefore similar numbers of cells needed to be plated on each plate (obtained by plating on plain LB plates). Platings of 1000 cells are consistently performed.
After digestion of the 900 bp product with the terminal restriction enzyme SfiI and agarose gel purification, the 900 bp product is ligated into the vector pUC182Sfi at the unique SfiI site with T4 DNA ligase (BRL, Gaithersburg Md.). The mixture is electroporated into E. coli XL1-blue cells and plated on LB plates with 0.32-0.64 μg/ml of cefotaxime (Sigma, St. Louis Mo.). The cells were grown for up to 24 hours at 37° C. and the resulting colonies are scraped off the plate as a pool and used as the PCR template for the next round of shuffling.
The transformants obtained after each of three rounds of shuffling are plated on increasing levels of cefotaxime. The colonies (>100, to maintain diversity) from the plate with the highest level of cefotaxime are pooled and used as the template for the PCR reaction for the next round.
Colonies obtained at 5-10 μg/ml are used for a third round similar to the first and second rounds except the cells are plated on LB plates having 80-160 μg/ml of cefotaxime. After the third round, colonies are obtained at 80-160 μg/ml, and after replating on increasing concentrations of cefotaxime, colonies could be obtained at up to 320 μg/ml after 24 hours at 37° C.
Growth on cefotaxime is dependent on the cell density, requiring that all the MICs be standardized (in our case to about 1,000 cells per plate). […] The 5 largest colonies grown at 1,280 μg/ml are plated for single colonies twice, and the SfiI inserts are analyzed by restriction mapping of the colony PCR products.

[1] = tested on: Gallus gallus FPP synthase (prenyl transferase activity); assay: Detection of prenyl transferase activity by luminescence measurement (PPi light assay); format: biochemical; details: DMAPP and IPP substrates, two hours at room temperature, in vitro synthesized Strep-Tag protein, versus wild type control
Method: After gene assembly was completed, the NEB PURExpress in vitro protein synthesis kit was used according to the manufacturer's instructions to produce the variant FPP synthase proteins. After protein synthesis, Strep-Tag magnetic beads (IBA GmbH) were used to isolate the synthesized proteins, after washing the beads with assay buffer (25 mm HEPES pH 7.4, 10 mM MgCl2).
After synthesis, the activity level of the synthesized protein was measured as described in Example 5 by luminescence. Because most mutations are anticipated to be detrimental, it is unlikely for any pool of mutants to have a higher activity than the wild-type protein; pools with higher activity than […] must be deconvoluted to identify individual beneficial mutants.
The residue numbers are reported using the wild-type sequence numbering (SEQ ID NO: 1). The winning pools of nine variants are again resynthesized as discrete mutants and activity measurements are repeated.
This example describes the detection of prenyl transferase activity by luminescence measurement. In this example, an avian FPP synthase (Genbank Accession No. P08836) (SEQ ID NO: 1) was used as the parent prenyl transferase. The parent prenyl transferase was codon-optimized (SEQ ID NO: 21) and inserted into a vector. The nucleic acid sequence of SEQ ID NO: 22 was cloned into the bacterial expression vector pET-21a(+) (FIG. 10) under the control of a T7 promoter. A reaction buffer was produced by mixing 4 μl of 10× reaction buffer (250 mM HEPES pH 7.4, 100 mM MgCl2), 0.2 μl of 1M dithiothreitol, 1 μl of 10 mM DMAPP, 2 μl of 10 mM IPP, and 31.8 μl of water. 1 ng of the Avian FPP synthase (SEQ ID NO: 22) was added to the 39 μl of reaction buffer in a white 96 well microplate. The reaction was sealed with an adhesive plastic cover and allowed to progress for two hours at room temperature.
The PPi light detection and conversion reagents were prepared as instructed by the manufacturer (Lonza Group Ltd., Basel, Switzerland). After the two hour incubation, 40 μl of the conversion reagent, and 40 μl of the detection reagent were added to the wells of the microplate, and the microplate was sealed with an aluminum foil cover. After sixty minutes, the aluminum cover was removed, and the luminescence emitted from each well was measured with a 96 well plate reader in glow luminescence mode. The total luminescence is reported as Relative Luminescence Units (RLU). […] For this study, each pool is a mixture of variants at a single amino acid position.

## CO/N=C(\C(=O)N[C@@H]1C(=O)N2C(C(=O)O)=C(COC(C)=O)CS[C@H]12)c1csc(N)n1 [cefotaxime]
E. coli XL1-blue cells; read-out: MIC of cefotaxime, cells carrying the starting (unshuffled) gene on pUC18 derivative
  MIC: ~0.02 µg/mL
E. coli XL1-blue cells; read-out: MIC of cefotaxime, mutant after the third round of shuffling and replating
  MIC: 320 µg/mL
E. coli XL1-blue cells; at higher cell densities, after third round of shuffling
  cefotaxime level at which growth is obtained: up to 1280 μg/ml
E. coli XL1-blue cells; selected mutant versus starting gene
  fold increased resistance to cefotaxime: 16,000 fold

B1: Thr269Tyr: Gallus gallus FPP synthase (SEQ ID NO: 1) point mutation Thr269Tyr (protein, listed as Gallus gallus)
chain: MHKFTGVNAKFQQPALRNLSPVVVEREREEFVGFFPQIVRDLTEDGIGHPEVGDAVARLKEVLQYNAPGGKCNRGLTVVAAYRELSGPGQKDAESLRCALAVGWCIELFQAFFLVADDIMDQSLTRRGQLCWYKKEGVGLDAINDSFLLESSVYRVLKKYCRQRPYYVHLLELFLQTAYQTELGQMLDLITAPVSKVDLSHFSEERYKAIVKYKTAFYSFYLPVAAAMYMVGIDSKEEHENAKAILLEMGEYFQIQDDYLDCFGDPALYGKVGTDIQDNKCSWLVVQCLQRVTPEQRQLLEDNYGRKEPEKVAKVKELYEAVGMRAAFQQYEESSYRRLQELIEKHSNRLPKEIFLGLAQKIYKRQK
[1]
  prenyl transferase activity measured by luminescence, compared with wild type: increased prenyl transferase activity as compared to the wild type protein; also recorded: activity greater than wild-type
[1]; listed as Thr—269_Tyr
  prenyl transferase activity measured by luminescence, compared with wild type: more activity than the wild type protein sequence

B2: Thr269Asp: Gallus gallus FPP synthase (SEQ ID NO: 1) point mutation Thr269Asp (protein, listed as Gallus gallus)
chain: MHKFTGVNAKFQQPALRNLSPVVVEREREEFVGFFPQIVRDLTEDGIGHPEVGDAVARLKEVLQYNAPGGKCNRGLTVVAAYRELSGPGQKDAESLRCALAVGWCIELFQAFFLVADDIMDQSLTRRGQLCWYKKEGVGLDAINDSFLLESSVYRVLKKYCRQRPYYVHLLELFLQTAYQTELGQMLDLITAPVSKVDLSHFSEERYKAIVKYKTAFYSFYLPVAAAMYMVGIDSKEEHENAKAILLEMGEYFQIQDDYLDCFGDPALDGKVGTDIQDNKCSWLVVQCLQRVTPEQRQLLEDNYGRKEPEKVAKVKELYEAVGMRAAFQQYEESSYRRLQELIEKHSNRLPKEIFLGLAQKIYKRQK
[1]
  prenyl transferase activity measured by luminescence, compared with wild type: increased prenyl transferase activity as compared to the wild type protein; also recorded: activity greater than wild-type
[1]; listed as Thr—269_Asp
  prenyl transferase activity measured by luminescence, compared with wild type: more activity than the wild type protein sequence

B3: Thr269Gln: Gallus gallus FPP synthase (SEQ ID NO: 1) point mutation Thr269Gln (protein, listed as Gallus gallus)
chain: MHKFTGVNAKFQQPALRNLSPVVVEREREEFVGFFPQIVRDLTEDGIGHPEVGDAVARLKEVLQYNAPGGKCNRGLTVVAAYRELSGPGQKDAESLRCALAVGWCIELFQAFFLVADDIMDQSLTRRGQLCWYKKEGVGLDAINDSFLLESSVYRVLKKYCRQRPYYVHLLELFLQTAYQTELGQMLDLITAPVSKVDLSHFSEERYKAIVKYKTAFYSFYLPVAAAMYMVGIDSKEEHENAKAILLEMGEYFQIQDDYLDCFGDPALQGKVGTDIQDNKCSWLVVQCLQRVTPEQRQLLEDNYGRKEPEKVAKVKELYEAVGMRAAFQQYEESSYRRLQELIEKHSNRLPKEIFLGLAQKIYKRQK
[1]
  prenyl transferase activity measured by luminescence, compared with wild type: increased prenyl transferase activity as compared to the wild type protein; also recorded: activity greater than wild-type
[1]; listed as Thr—269_Gln
  prenyl transferase activity measured by luminescence, compared with wild type: more activity than the wild type protein sequence
